Measurements: article PMC10076392 (2023)

B1: FtsW-FtsI complex, His-tagged (complex)
chain 1: MRLSLPRLKMPRLPGFSILVWISTALKGWVMGSREKDTDSLIMYDRTLLWLTFGLAAIGFIMVTSASMPIGQRLTNDPFFFAKRDGVYLILAFILAIITLRLPMEFWQRYSATMLLGSIILLMIVLVVGSSVKGASRWIDLGLLRIQPAELTKLSLFCYIANYLVRKGDEVRNNLRGFLKPMGVILVLAVLLLAQPDLGTVVVLFVTTLAMLFLAGAKLWQFIAIIGMGISAVVLLILAEPYRIRRVTAFWNPWEDPFGSGYQLTQSLMAFGRGELWGQGLGNSVQKLEYLPEAHTDFIFAIIGEELGYVGVVLALLMVFFVAFRAMSIGRKALEIDHRFSGFLACSIGIWFSFQALVNVGAAAGMLPTKGLTLPLISYGGSSLLIMSTAIMMLLRIDYETRLEKAQAFVRGSR
chain 2: MKAAAKTQKPKRQEEHANFISWRFALLCGCILLALAFLLGRVAWLQVISPDMLVKEGDMRSLRVQQVSTSRGMITDRSGRPLAVSVPVKAIWADPKEVHDAGGISVGDRWKALANALNIPLDQLSARINANPKGRFIYLARQVNPDMADYIKKLKLPGIHLREESRRYYPSGEVTAHLIGFTNVDSQGIEGVEKSFDKWLTGQPGERIVRKDRYGRVIEDISSTDSQAAHNLALSIDERLQALVYRELNNAVAFNKAESGSAVLVDVNTGEVLAMANSPSYNPNNLSGTPKEAMRNRTITDVFEPGSTVKPMVVMTALQRGVVRENSVLNTIPYRINGHEIKDVARYSELTLTGVLQKSSNVGVSKLALAMPSSALVDTYSRFGLGKATNLGLVGERSGLYPQKQRWSDIERATFSFGYGLMVTPLQLARVYATIGSYGIYRPLSITKVDPPVPGERVFPESIVRTVVHMMESVALPGGGGVKAAIKGYRIAIKTGTAKKVGPDGRYINKYIAYTAGVAPASQPRFALVVVINDPQAGKYYGGAVSAPVFGAIMGGVLRTMNIEPDALTTGDKNEFV
B2: PBP1b (aa58-804) (enzyme)
chain: KPRGKRGWLWLLLKLAIVFAVLIAIYGVYLDQKIRSRIDGKVWQLPAAVYGRMVNLEPDMTISKNEMVKLLEATQYRQVSKMTRPGEFTVQANSIEMIRRPFDFPDSKEGQVRARLTFDGDHLATIVNMENNRQFGFFRLDPRLITMISSPNGEQRLFVPRSGFPDLLVDTLLATEDRHFYEHDGISLYSIGRAVLANLTAGRTVQGASTLTQQLVKNLFLSSERSYWRKANEAYMALIMDARYSKDRILELYMNEVYLGQSGDNEIRGFPLASLYYFGRPVEELSLDQQALLVGMVKGASIYNPWRNPKLALERRNLVLRLLQQQQIIDQELYDMLSARPLGVQPRGGVISPQPAFMQLVRQELQAKLGDKVKDLSGVKIFTTFDSVAQDAAEKAAVEGIPALKKQRKLSDLETAIVVVDRFSGEVRAMVGGSEPQFAGYNRAMQARRSIGSLAKPATYLTALSQPKIYRLNTWIADAPIALRQPNGQVWSPQNDDRRYSESGRVMLVDALTRSMNVPTVNLGMALGLPAVTETWIKLGVPKDQLHPVPAMLLGALNLTPIEVAQAFQTIASGGNRAPLSALRSVIAEDGKVLYQSFPQAERAVPAQAAYLTLWTMQQVVQRGTGRQLGAKYPNLHLAGKTGTTNNNVDTWFAGIDGSTVTITWVGRDNNQPTKLYGASGAMSIYQRYLANQTPTPLNLVPPEDIADMGVDYDGNFVCSGGMRILPVWTSDPQSLCQQSEMQQQPS

What was measured:
Experiment in all cases: BLI
[1] = target: FtsB-FtsL-FtsQ complex, analyte of the BLI assay (E. coli strain K12, UniProt P0A6S5 1-103; P0AEN4 1-121; P06136 1-276, S3N | R4K | V5L)
PBP1b (aa58-804) = target: B2
[2] = target: FtsB-FtsL-FtsQ complex, His-tagged (E. coli strain K12, UniProt P0A6S5 1-103; P0AEN4 1-121; P06136 1-276, S3N | R4K | V5L)

B1
Kd [1]: 180 nM | Kd (PBP1b (aa58-804)): 530 nM

B2
Kd [2]: 930 nM
